The values that follow come from article PMC6430795, “Complex formation of APP with GABAB receptors links axonal trafficking to amyloidogenic processing” (Nature Communications, 2019).

For test [1], the target named is Myc-GB1a (UniProt Q9Z0U4).
For test [2], the target named is T1, APP on tsA201 cells (UniProt P05067-4 18-695).
T1 construct: expression was read with goat anti-APP; source: tsA201 cells, transfected, on cells
The experiment in a line: immunostaining of cells or tissue; cell surface binding: transfected tsA201 cells incubated 30 min at room temperature with 0.2 to 2000 nM purified Myc-SD1/2 in OptiMEM, fixed, bound SD1/2 stained with anti-c-Myc and put into ratio with the expressed protein; apparent KD from a Hill equation with a coefficient of 1. The conditions noted are these: one partner purified.

Test [3] addresses T2, AJAP-1 on tsA201 cells (UniProt A2ALI5 44-412).
T2 construct: adherens junction-associated protein 1; cDNA from Source BioScience in pcDNA3; source: tsA201 cells, transfected, on cells
T2 sequence (looked up): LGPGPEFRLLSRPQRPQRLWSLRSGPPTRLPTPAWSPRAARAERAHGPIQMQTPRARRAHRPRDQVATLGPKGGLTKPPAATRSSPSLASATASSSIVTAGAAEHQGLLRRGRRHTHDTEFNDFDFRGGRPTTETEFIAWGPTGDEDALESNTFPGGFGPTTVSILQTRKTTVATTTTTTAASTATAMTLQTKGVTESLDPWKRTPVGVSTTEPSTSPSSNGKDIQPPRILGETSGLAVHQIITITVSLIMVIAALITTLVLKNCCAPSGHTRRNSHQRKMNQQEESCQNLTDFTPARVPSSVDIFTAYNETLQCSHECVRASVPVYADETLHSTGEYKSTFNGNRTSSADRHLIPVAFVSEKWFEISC
The description is as above. The conditions noted are these: one partner purified.

Test [4] deals with T3, HA-PIANP on tsA201 cells (UniProt Q6P1B3 28-278).
T3 construct: PILRα-associated neural protein; cDNA from OriGene in pCMV6 with an HA-tag insertion after amino acid 27; source: tsA201 cells, transfected, on cells; not shown: HA, internal (after residue 27), kept
T3 sequence (looked up): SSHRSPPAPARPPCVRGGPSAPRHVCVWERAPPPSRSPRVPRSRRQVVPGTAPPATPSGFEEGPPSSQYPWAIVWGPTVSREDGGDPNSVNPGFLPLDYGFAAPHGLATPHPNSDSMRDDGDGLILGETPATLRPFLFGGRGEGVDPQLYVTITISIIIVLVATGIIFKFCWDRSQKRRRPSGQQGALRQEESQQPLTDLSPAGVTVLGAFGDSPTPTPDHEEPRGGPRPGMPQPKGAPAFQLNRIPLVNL
The description is as above. The conditions noted are these: one partner purified.

“APP (APP695, pCAX-APP695) (from UniProt P05067-4 18-695) (natural protein)”: in test [1], the reduction of BACE1-mediated Aβ40 secretion into the medium of HEK293 cells in the presence of GB1a/2 receptors, ELISA 32 h post-transfection amounted to 77%; the reduction of the APP-βCTF/APP-FL ratio (BACE1 cleavage of APP) in HEK293 cells in the presence of GB1a/2 receptors, immunoblot densitometry worked out at 60%; the reduction of the sAPPβ/APP-FL ratio (BACE1 cleavage of APP) in HEK293 cells in the presence of GB1a/2 receptors, immunoblot densitometry was 57%.

B1: recombinant SD1/2 protein (sushi domains 1 and 2 of GB1a) (domain or fragment, UniProt Q9Z0U4 20-158, looked up)
chain: QTPNATSEGCQIIHPPWEGGIRYRGLTRDQVKAINFLPVDYEIEYVCRGEREVVGPKVRKCLANGSWTDMDTPSRCVRICSKSYLTLENGKVFLTGGDLPALDGARVEFRCDPDFHLVGSSRSVCSQGQWSTPKPHCQV
notes: the two N-terminal sushi domains (SD1 and SD2) of the GABAB receptor subunit GB1a; the NMR samples are called unlabeled recombinant SD1/2; also called Myc-SD1/2; Myc-SDI/II
With B1, the figures for the Kd in test [2], in test [3] and in test [4] were 188 nM, 6.4 nM and 29.1 nM, respectively.
